In publication PMC9841435, “Structural basis of DNA polymerase θ mediated DNA end joining” (Nucleic Acids Research, 2022):
Read-outs that look alike come from different tables or passages of the source.

Experiments:
[1] = test system: T1, LcPol θ-pol; assay: steady-state primer extension, denaturing PAGE of 6-FAM hairpin DNA; format: biochemical, Lates calcarifer; conditions: 1 μM hairpin DNA HP [3,9], 1 nM enzyme, 5 mM MgCl2, 100 mM KCl, pH 7.6, 37 °C; read-out: KM, dATP
T1 construct: gene polq; C-terminal polymerase domain (pseudo-exonuclease, thumb, finger, palm), residues 1950-2714 of 2714; synthetic gene in pETsumo2; His6-SUMO tag removed by SENP2; E. coli Rosetta2 (DE3); mainly monomeric

[2] = test system: T1, LcPol θ-pol; assay: as above; format: biochemical, Lates calcarifer; conditions: Δloop2_b (ΔV2405–R2448); 1 μM hairpin DNA HP [3,9], 200 nM enzyme, 5 mM MgCl2, 100 mM KCl, pH 7.6, 37 °C; read-out: KM, dATP
[3] = target: T2, LcPol theta-pol WT (Lates calcarifer, UniProt PDB:8EFK_1 1-864); assay: EMSA; 2.5 mM EDTA, no dNTP; EMSA: 10 nM HP [3,9], 25 mM HEPES pH 8.0, 100 mM KCl, 3 mM DTT, 100 ug/ml BSA, 10% glycerol, 2.5 mM EDTA, 0.01% NP40, on ice 20 min; 6% native PAGE, Tris-glycine; Hill fit; conditions: protein: recombinant; tags: His6-SUMO, removed by SENP2; label: 5' 6-FAM; hairpin, 3-bp stem, 9-nt dT loop, 5' overhang 8 nt
[4] = target: LcPol theta-pol Δloop1 (Lates calcarifer, UniProt PDB:8EFK_1 1-864, del443-461); assay: as above; conditions: protein: recombinant; tags: His6-SUMO, removed by SENP2; label: 5' 6-FAM; hairpin, 3-bp stem, 9-nt dT loop, 5' overhang 8 nt
[5] = target: LcPol theta-pol K2299A/K2300A/R2306A/R2307A (Lates calcarifer, UniProt PDB:8EFK_1 1-864, K449A;K450A;R456A;R457A); assay: as above; conditions: protein: recombinant; tags: His6-SUMO, removed by SENP2; label: 5' 6-FAM; hairpin, 3-bp stem, 9-nt dT loop, 5' overhang 8 nt
[6] = target: LcPol theta-pol Δloop2_b (Lates calcarifer, UniProt PDB:8EFK_1 1-864, del555-598); assay: EMSA; 2.5 mM EDTA; Kd comparable to WT; EMSA: 10 nM HP [3,9], 25 mM HEPES pH 8.0, 100 mM KCl, 3 mM DTT, 100 ug/ml BSA, 10% glycerol, 2.5 mM EDTA, 0.01% NP40, on ice 20 min; 6% native PAGE, Tris-glycine; Hill fit; conditions: protein: recombinant; tags: His6-SUMO, removed by SENP2; label: 5' 6-FAM; hairpin, 3-bp stem, 9-nt dT loop, 5' overhang 8 nt
[7] = target: LcPol theta-pol Δloop2_a (Lates calcarifer, UniProt PDB:8EFK_1 1-864, del552-591); assay: as above; conditions: protein: recombinant; tags: His6-SUMO, removed by SENP2; label: 5' 6-FAM; hairpin, 3-bp stem, 9-nt dT loop, 5' overhang 8 nt
[8] = target: LcPol theta-pol R2448A (Lates calcarifer, UniProt PDB:8EFK_1 1-864, R598A); assay: as above; conditions: protein: recombinant; tags: His6-SUMO, removed by SENP2; label: 5' 6-FAM; hairpin, 3-bp stem, 9-nt dT loop, 5' overhang 8 nt
[9] = target: LcPol theta-pol K2299A/K2300A (Lates calcarifer, UniProt PDB:8EFK_1 1-864, K449A;K450A); assay: EMSA; 2.5 mM EDTA; affinity similar to WT; EMSA: 10 nM HP [3,9], 25 mM HEPES pH 8.0, 100 mM KCl, 3 mM DTT, 100 ug/ml BSA, 10% glycerol, 2.5 mM EDTA, 0.01% NP40, on ice 20 min; 6% native PAGE, Tris-glycine; Hill fit; conditions: protein: recombinant; tags: His6-SUMO, removed by SENP2; label: 5' 6-FAM; hairpin, 3-bp stem, 9-nt dT loop, 5' overhang 8 nt
[10] = target: LcPol theta-pol R2306A/R2307A (Lates calcarifer, UniProt PDB:8EFK_1 1-864, R456A;R457A); assay: as above; conditions: protein: recombinant; tags: His6-SUMO, removed by SENP2; label: 5' 6-FAM; hairpin, 3-bp stem, 9-nt dT loop, 5' overhang 8 nt
[11] = target: T2, LcPol theta-pol WT; assay: cryo-EM; dGTP, Mg2+; complex Ia, 2.4 A, 11 bp visible; EMSA: 10 nM HP [3,9], 25 mM HEPES pH 8.0, 100 mM KCl, 3 mM DTT, 100 ug/ml BSA, 10% glycerol, 2.5 mM EDTA, 0.01% NP40, on ice 20 min; 6% native PAGE, Tris-glycine; Hill fit; conditions: protein: recombinant; tags: His6-SUMO, removed by SENP2; primer/template, 20 bp, template 5' overhang 9 nt

T2 sequence (chain, as listed by the source): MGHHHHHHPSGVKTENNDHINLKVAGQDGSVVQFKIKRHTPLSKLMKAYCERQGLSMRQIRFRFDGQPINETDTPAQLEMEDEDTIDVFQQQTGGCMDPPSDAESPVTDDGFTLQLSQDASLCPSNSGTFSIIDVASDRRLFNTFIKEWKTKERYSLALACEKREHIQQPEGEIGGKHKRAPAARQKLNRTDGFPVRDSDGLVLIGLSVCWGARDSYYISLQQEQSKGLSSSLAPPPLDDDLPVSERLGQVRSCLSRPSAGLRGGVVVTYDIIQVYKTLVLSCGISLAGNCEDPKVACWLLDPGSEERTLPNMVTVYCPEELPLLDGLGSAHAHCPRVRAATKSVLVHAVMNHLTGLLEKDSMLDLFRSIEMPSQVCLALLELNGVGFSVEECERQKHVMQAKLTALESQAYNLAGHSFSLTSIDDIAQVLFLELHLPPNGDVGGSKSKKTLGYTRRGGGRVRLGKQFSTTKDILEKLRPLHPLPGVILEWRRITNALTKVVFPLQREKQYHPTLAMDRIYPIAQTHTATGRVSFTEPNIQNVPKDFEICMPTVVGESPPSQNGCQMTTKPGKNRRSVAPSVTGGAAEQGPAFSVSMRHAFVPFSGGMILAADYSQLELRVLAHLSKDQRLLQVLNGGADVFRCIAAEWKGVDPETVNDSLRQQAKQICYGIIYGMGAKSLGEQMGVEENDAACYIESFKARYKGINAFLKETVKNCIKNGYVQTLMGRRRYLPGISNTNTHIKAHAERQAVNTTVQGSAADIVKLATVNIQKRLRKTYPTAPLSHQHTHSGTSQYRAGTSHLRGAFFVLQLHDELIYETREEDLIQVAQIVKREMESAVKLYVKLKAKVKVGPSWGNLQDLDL
Chain of LcPol theta-pol K2299A/K2300A (chain, as listed by the source K449A;K450A | K2299A K2300A K2299A K2300A): as the sequence (chain, as listed by the source) above, with K449A, K450A counted along it
Chain of LcPol theta-pol K2299A/K2300A/R2306A/R2307A (chain, as listed by the source with the stated changes): as the sequence (chain, as listed by the source) above, with K449A, K450A, R456A, R457A counted along it
Chain of LcPol theta-pol Δloop1 (chain, as listed by the source del443-461 | mutant): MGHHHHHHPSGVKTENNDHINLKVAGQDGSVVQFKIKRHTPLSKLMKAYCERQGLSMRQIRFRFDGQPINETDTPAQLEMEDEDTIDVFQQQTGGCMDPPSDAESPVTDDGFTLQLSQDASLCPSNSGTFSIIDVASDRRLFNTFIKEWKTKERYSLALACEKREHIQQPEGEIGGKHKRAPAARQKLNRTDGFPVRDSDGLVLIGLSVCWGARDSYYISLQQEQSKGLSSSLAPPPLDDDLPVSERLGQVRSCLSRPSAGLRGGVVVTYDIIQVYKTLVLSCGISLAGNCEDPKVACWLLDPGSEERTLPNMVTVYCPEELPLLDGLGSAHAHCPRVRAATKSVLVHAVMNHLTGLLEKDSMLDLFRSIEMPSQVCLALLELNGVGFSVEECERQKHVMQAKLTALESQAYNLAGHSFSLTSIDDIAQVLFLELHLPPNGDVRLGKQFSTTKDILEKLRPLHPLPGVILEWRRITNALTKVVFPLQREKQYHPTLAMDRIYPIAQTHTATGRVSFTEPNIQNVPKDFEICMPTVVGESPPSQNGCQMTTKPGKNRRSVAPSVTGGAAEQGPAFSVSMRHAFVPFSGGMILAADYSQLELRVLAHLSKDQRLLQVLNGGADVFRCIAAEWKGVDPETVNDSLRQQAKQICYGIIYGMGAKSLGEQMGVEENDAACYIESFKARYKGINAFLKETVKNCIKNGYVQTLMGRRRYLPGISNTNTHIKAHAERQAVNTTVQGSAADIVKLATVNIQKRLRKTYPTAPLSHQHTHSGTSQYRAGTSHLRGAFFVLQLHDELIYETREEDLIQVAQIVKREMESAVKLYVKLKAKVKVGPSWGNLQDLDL
Chain of LcPol theta-pol R2306A/R2307A (chain, as listed by the source R456A;R457A | R2306A R2307A R2306A R2307A): as the sequence (chain, as listed by the source) above, with R456A, R457A counted along it
Chain of LcPol theta-pol Δloop2_a (chain, as listed by the source del552-591 | mutant): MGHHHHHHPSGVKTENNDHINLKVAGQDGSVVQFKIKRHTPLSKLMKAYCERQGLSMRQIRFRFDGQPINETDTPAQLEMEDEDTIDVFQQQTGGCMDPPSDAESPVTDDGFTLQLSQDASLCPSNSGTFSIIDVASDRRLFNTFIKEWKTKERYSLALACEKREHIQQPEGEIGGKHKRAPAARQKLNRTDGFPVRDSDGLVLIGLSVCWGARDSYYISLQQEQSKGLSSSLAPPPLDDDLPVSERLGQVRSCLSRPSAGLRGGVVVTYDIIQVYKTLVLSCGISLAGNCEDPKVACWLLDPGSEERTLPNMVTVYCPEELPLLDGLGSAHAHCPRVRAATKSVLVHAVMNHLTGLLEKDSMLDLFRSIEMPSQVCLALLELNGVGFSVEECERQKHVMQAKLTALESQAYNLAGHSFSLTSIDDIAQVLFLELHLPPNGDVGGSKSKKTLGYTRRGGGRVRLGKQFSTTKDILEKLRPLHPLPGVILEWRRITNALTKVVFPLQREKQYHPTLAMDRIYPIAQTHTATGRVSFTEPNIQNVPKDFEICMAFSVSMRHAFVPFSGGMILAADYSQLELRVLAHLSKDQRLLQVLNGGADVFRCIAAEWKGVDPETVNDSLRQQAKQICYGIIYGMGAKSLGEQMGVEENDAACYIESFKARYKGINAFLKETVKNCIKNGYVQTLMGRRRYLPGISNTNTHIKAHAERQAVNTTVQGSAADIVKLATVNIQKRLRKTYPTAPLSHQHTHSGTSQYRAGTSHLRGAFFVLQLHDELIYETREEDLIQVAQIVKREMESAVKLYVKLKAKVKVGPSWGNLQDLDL
Chain of LcPol theta-pol Δloop2_b (chain, as listed by the source del555-598 | mutant): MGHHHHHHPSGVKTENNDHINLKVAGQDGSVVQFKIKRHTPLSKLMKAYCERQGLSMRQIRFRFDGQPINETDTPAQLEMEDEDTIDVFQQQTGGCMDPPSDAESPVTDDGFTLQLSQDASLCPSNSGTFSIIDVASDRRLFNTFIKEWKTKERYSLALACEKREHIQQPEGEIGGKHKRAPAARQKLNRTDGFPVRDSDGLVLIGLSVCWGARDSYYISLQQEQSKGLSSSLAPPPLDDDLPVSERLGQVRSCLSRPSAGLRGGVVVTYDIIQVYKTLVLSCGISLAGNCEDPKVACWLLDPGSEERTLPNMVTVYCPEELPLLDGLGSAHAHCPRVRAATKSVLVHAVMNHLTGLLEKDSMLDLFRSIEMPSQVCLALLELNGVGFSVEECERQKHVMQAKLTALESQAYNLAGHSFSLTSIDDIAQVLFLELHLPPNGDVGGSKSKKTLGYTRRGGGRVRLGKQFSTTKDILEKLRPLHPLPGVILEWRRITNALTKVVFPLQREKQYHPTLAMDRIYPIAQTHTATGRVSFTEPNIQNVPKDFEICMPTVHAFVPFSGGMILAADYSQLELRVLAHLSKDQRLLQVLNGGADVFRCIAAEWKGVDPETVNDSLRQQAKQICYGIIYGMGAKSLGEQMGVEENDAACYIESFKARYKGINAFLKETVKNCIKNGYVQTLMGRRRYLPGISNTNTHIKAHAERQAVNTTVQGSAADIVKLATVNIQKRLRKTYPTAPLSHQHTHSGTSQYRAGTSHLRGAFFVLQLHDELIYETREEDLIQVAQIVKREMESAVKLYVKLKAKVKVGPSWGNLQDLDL
Chain of LcPol theta-pol R2448A (chain, as listed by the source R598A | R2448A R2448A): as the sequence (chain, as listed by the source) above, with R598A counted along it

Q: What does the source list for `Nc1ncnc2c1ncn2[C@H]1C[C@H](O)[C@@H](COP(=O)(O)OP(=O)(O)OP(=O)(O)O)O1` [dATP]?
A: Km [1]: 12 µM; Km [2]: 157 µM

B1: HP [3,9] (structured_DNA)
DNA: TTTTTTTTGGCTTTTTTTTTGCC
Q: B1 was tested. Which Kd [3] did it give?
A: 29 nM

Q: And the Kd [4]?
A: 138 nM

Q: What about the Kd [5] of the same molecule?
A: 50 nM

Q: Does B1 bind [6]?
A: binds

Q: Does B1 bind [7]?
A: binds

Q: Does B1 bind [8]?
A: binds

Q: Does B1 bind [9]?
A: binds

Q: Does B1 bind [10]?
A: binds

B2: 20/29 mer dsDNA, ddA-terminated primer (dsDNA)
DNA 1: TGCTGTGAGGCATCCGTAGA
DNA 2: GCAGTCAGCTCTACGGATGCCTCACAGCA
modifications: 3'-terminal dideoxy-A on primer
Q: Does B2 bind [11]?
A: binds
